In assay [1] the target is epidermal growth factor receptor (ovine pulmonary artery smooth muscle cells) (ovine (endogenous in PASMC)). The experiment in a line: SDS-PAGE and Western blot of SDS-resistant dimer. (In general: In western blotting, separated proteins are transferred to a membrane and probed.)
The target of assay [2] is epidermal growth factor receptor (rat lung) (rat (endogenous in lung tissue)). The experiment in a line: SDS-PAGE and Western blot of SDS-resistant dimer.
The target in assay [3] is recombinant human catalase (human) (UniProt P04040). The experiment in a line: native gel or EMSA.
The target is the same in assay [4]. The experiment in a line: SEC. On the technique in general: Size exclusion chromatography separates by hydrodynamic size, large species first.

“And” between values parts separate entries of the source, which are not always exact repeats. Equal entries are not always repeated.

The stoichiometry N is a count of units in the complex or per binding partner. In assay [1], “epidermal growth factor receptor (ovine pulmonary artery smooth muscle cells)” returned a stoichiometry N of 2.

“epidermal growth factor receptor (rat lung)” came in with a stoichiometry N in assay [2] of 2.

Take “recombinant human catalase (from UniProt P04040 1-527) (enzyme)”: the stoichiometry N is 4 in assay [3]; 4 and 3 and 2 in assay [4].

The values above are taken from paper PMC5929487.
